Key:
mFc-hNKG2D [1] = molecular target: T1, mFc-hNKG2D (human, UniProt P26718 73-216); experiment: SPR Biacore 8K 37 C; mFc-hNKG2D captured on anti-mFc chip, TriNKET as analyte; 1:1 kinetic fit; pH 8.0 control
T1 construct: extracellular domain; Made in house (Dragonfly Tx); the order of tag and ECD follows the name mFc-hNKG2D; also called mFc-tagged human NKG2D; not shown: mouse Fc tag
T1 sequence (looked up): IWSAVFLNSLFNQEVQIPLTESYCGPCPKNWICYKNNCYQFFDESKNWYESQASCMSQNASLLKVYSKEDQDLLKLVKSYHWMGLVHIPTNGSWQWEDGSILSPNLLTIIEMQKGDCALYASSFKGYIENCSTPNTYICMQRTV

mFc-hNKG2D [2] = molecular target: T1, mFc-hNKG2D; experiment: SPR Biacore 8K 37 C; mFc-hNKG2D captured on anti-mFc chip, TriNKET as analyte; steady state fit; after low pH hold, n=3
mFc-hNKG2D [3] = molecular target: T1, mFc-hNKG2D; experiment: SPR Biacore 8K 37 C; mFc-hNKG2D captured on anti-mFc chip, TriNKET as analyte; steady state fit; un-oxidized control
Method: Association was monitored for 60 seconds and dissociation was monitored for 60 seconds. Surfaces were regenerated between cycles with three pulses of 10 mM glycine-HCl, pH 1.7 injected for 20 seconds at 100 μL/min. HBS-EP+ (1×) buffer was used throughout the experiment. Data were analyzed using Biacore 8K Insight evaluation software (GE Healthcare).

[4] = molecular target: T2, Human CD16a V158 (FcγRIIIa V158) (human, UniProt P08637 17-208, biotinylated (site not stated)); experiment: SPR; biotinylated CD16a V158 captured on SA chip, TriNKET as analyte; 1:1 kinetic fit; after 4 wks 40 C in CST pH 7.0, n=3
T2 construct: V158 is the allele name in mature numbering; also called hCD16aV; hCD16a V158
T2 sequence (P08637 17-208 F176V limits assumed): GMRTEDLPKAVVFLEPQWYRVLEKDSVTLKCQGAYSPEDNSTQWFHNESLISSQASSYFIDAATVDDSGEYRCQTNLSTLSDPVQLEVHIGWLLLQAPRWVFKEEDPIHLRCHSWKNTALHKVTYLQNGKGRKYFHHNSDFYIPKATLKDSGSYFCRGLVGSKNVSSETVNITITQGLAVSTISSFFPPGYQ

Kd (mFc-hNKG2D [1]): 694 nM
koff (mFc-hNKG2D [1]): 0.125 s⁻¹
kon (mFc-hNKG2D [1]): 180000 M⁻¹ s⁻¹
Kd (mFc-hNKG2D [2]): 672 nM
Kd (mFc-hNKG2D [3]): 759 nM
Kd [4]: 213 nM
koff [4]: 0.0225 s⁻¹
kon [4]: 105000 M⁻¹ s⁻¹
B1: F3'-1602 TriNKET (bispecific antibody, human IgG1, kappa)
chain: QLQLQESGPGLVKPSETLSLTCTVSGFSLTNYGLHWIRQPPGKCLEWIGVIWSGGKTDYNPSLKSRVTISKDTSKNQFSLKLSSVQAADTAVYYCAKYDYDDSLDYWGQGTLVTVSSGGGGSGGGGSGGGGSGGGGSDIQMTQSPSSLSASVGDRVTITCHASQNINFWLSWYQQKPGKAPKLLIYEASNLHTGVPSRFSGSGSGTRFTLTISSLQPEDIATYYCQQSHSYPLTFGCGTKLEIKGSDKTHTCPPCPAPELLGGPSVFLFPPKPKDTLMISRTPEVTCVVVDVSHEDPEVKFNWYVDGVEVHNAKTKPREEQYNSTYRVVSVLTVLHQDWLNGKEYKCKVSNKALPAPIEKTISKAKGQPREPRVYTLPPCRDELTKNQVSLTCLVKGFYPSDIAVEWESNGQPENNYKTTPPVLVSDGSFTLYSKLTVDKSRWQQGNVFSCSVMHEALHNHYTQKSLSLSPG
heavy: EVQLVESGGGLVKPGGSLRLSCAASGFTFSSYSMNWVRQAPGKGLEWVSSISSSSSYIYYADSVKGRFTISRDNAKNSLYLQMNSLRAEDTAVYYCARGAPIGAAAGWFDPWGQGTLVTVSSASTKGPSVFPLAPSSKSTSGGTAALGCLVKDYFPEPVTVSWNSGALTSGVHTFPAVLQSSGLYSLSSVVTVPSSSLGTQTYICNVNHKPSNTKVDKKVEPKSCDKTHTCPPCPAPELLGGPSVFLFPPKPKDTLMISRTPEVTCVVVDVSHEDPEVKFNWYVDGVEVHNAKTKPREEQYNSTYRVVSVLTVLHQDWLNGKEYKCKVSNKALPAPIEKTISKAKGQPREPQVCTLPPSRDELTENQVSLTCLVKGFYPSDIAVEWESNGQPENNYKTTPPVLDSDGSFFLYSWLTVDKSRWQQGNVFSCSVMHEALHNHYTQKSLSLSPG
light: DIQMTQSPSSVSASVGDRVTITCRASQGISSWLAWYQQKPGKAPKLLIYAASSLQSGVPSRFSGSGSGTDFTLTISSLQPEDFATYYCQQGVSFPRTFGGGTKVEIKRTVAAPSVFIFPPSDEQLKSGTASVVCLLNNFYPREAKVQWKVDNALQSGNSQESVTEQDSKDSTYSLSSTLTLSKADYEKHKVYACEVTHQGLSSPVTKSFNRGEC
notes: Trispecific F3' format: CLEC12A scFv-Fc paired with NKG2D Fab-Fc; Stressed and control samples of the stability studies are the same molecule; also called AB0237
